Tests used:
Format in all cases: biochemical
[1] = HTP screening assay of LeuB variants, 3-IPM; details: 750 μM 3-IPM, 2 mM NAD+, pH 8.0, 25° C.; mean of duplicates
Method: (§1) The evaluation of the LeuB variants is performed in two steps using the high-throughput enzyme assay described below. Initially, all of the variants are screened for activity against a single high concentration of 3-IPM, 3-BM and 3-HM. Following the initial evaluation, detailed kinetic analysis is performed on a select number of variants to determine the maximal rate (kcat), Michaelis-Menten constant (KM), and the catalytic efficiency of the variant enzymes (kcat/KM).
(§2) A suitable spectrophotometric LeuB enzyme assay is adapted into a high-throughput format in 96-well plates for the kinetic evaluation of LeuB and its variants (shown in Table 1) against 3-isopropylmalate (3-IPM), 3-butylmalate (3-BM), and 3-hexylmalate (3-HM). See, for example, Hsu, Y.; Kohlhaw, G. B. “Leucine biosynthesis in Saccharomyces cerevisiae. Purification and characterization of beta-isopropylmalate dehydrogenase,” J. Biol. Chem., 1980, 255:7255-7260. Steady state kinetic parameters (kcat, KM and kcat/KM) for the oxidative decarboxylation of the three substrates by the variants are determined in these experiments.
(§3) The HTP screening assay involves incubating 750 micromoles (μM) of 3-IPM, 1 mM 3-BM or 1 mM 3-HM, with 2 mM nicotinamide adenine dinucleotide (NAD^+) in LeuB assay buffer (50 mM 4-(2-hydroxyethyl) piperazine-1-ethanesulfonic acid (HEPES), pH 8.0, containing 30 mM potassium chloride (KCl) and 5 mM magnesium chloride (MgCl2)) at 25° C. The reaction is started by the addition at 25° C. of working enzyme stock containing from 0.3 microgram (μg) to 1.1 μg of LeuB variant diluted in assay buffer containing 1 mM DTT and 1 milligram per milliliter (mg/mL) bovine serum albumin (BSA). The plate containing the 200 μL of reaction mixture is centrifuged at 2500×g for 15 seconds (sec) and the absorbance change of the reaction mixture is followed spectrophotometrically at 340 nm on a BioTek™ plate reader, pre-equilibrated at 25° C. Initial velocity of the enzyme reaction is calculated from the rate of NADH production at 340 nm and using the extinction coefficient of NADH (6.22 per millimolar per centimeter (mM^−1cm^−1)). The activity of all the variants is normalized with the amount of enzyme present in the reaction mixture and expressed as nanomoles per minute per microgram (nmol·min^−1·μg^−1) (Table 2). Protein concentrations for normalizing the activities are determined using the 660 nm total protein assay kit acquired from Pierce Biotechnology Inc.™, available from Thermo Fisher Scientific, Inc., and using BSA as the standard.

[2] = HTP screening assay of LeuB variants, 3-BM; details: 1 mM 3-BM, 2 mM NAD+, pH 8.0, 25° C.; mean of duplicates
Method: as §1, §2, §3

[3] = HTP screening assay of LeuB variants, 3-HM; details: for Specific activity, 3-HM: 1 mM 3-HM, 2 mM NAD+, pH 8.0, 25° C., mean of duplicates; for activity against 3-HM compared with the wild type enzyme: screening at single high concentration
Method: as §1, §2, §3

[4] = HTP LeuB kinetic assay, oxidative decarboxylation of 3-IPM; details: less efficient than wild type LeuB
Method: as §1, §2
(§4) The HTP kinetic assay involves incubating eight varied concentrations, of 3-IPM (from 0 to 1.2 mM) or 3-BM (from 0 to 2 mM) or 3-HM (from 0 to 2 mM), with 2 mM NAD^+ in LeuB assay buffer (50 mM HEPES, pH 8.0, containing 30 mM KCl and 5 mM MgCl2) at 25° C. The reaction is started by adding from 0.008 μg to 0.5 μg of LeuB variant which has been pre-diluted in assay buffer containing 1 mM DTT and 1 mg/mL BSA. The plate containing the 200 μl of reaction mixture is centrifuged at 2500×g for 15 sec and the absorbance change is followed spectrophotometrically at 340 nm on a BioTek™ plate reader maintained at 25° C. Initial velocity of the enzyme reaction is calculated from the rate of NADH production at 340 nm and using the extinction coefficient of NADH (6.22 mM^−1cm^−1). The kinetic parameters (kcat, KM and kcat/KM) of oxidative decarboxylation of 3-alkylmalate are determined by fitting the data to the Michaelis-Menten equation using nonlinear regression performed using the GraphPad Prism™ software. Table 3 lists the kinetic parameters of the wild type and engineered variants against the three substrates. The amount of enzyme in the reaction mixture is determined using the 660 nm total protein assay kit acquired from Pierce Biotechnology Inc.™, using BSA as the standard.

[5] = HTP LeuB kinetic assay, oxidative decarboxylation of 3-HM; details: for increase in efficiency of capturing 3-HM compared with the wild type enzyme: more efficient than wild type LeuB; for Km / kcat: substrate 3-HM, mean ± S.D.
Method: as §1, §2, §4

[6] = HTP LeuB kinetic assay, oxidative decarboxylation of 3-BM; details: substrate 3-BM; mean ± S.D.
Method: as §1, §2, §4

Molecule	Specific activity, 3-IPM [1] [nmol/min/µg]	Specific activity, 3-BM [2] [nmol/min/µg]	Specific activity, 3-HM [3] [nmol/min/µg]	activity against 3-HM compared with the wild type enzyme [3]	decrease in efficiency of capturing 3-IPM compared with the wild type enzyme [4]	increase in efficiency of capturing 3-HM compared with the wild type enzyme [5] [fold]	Km [5] [µM]	kcat [5] [s⁻¹]	Km [6] [µM]	kcat [6] [s⁻¹]
V198A: E. coli LeuB variant with Val-198 replaced with alanine (protein, UniProt P30125 2-363, looked up, variant V198A) 3-isopropylmalate …: SKNYHIAVLPGDGIGPEVMTQALKVLDAVRNRFAMRITTSHYDVGGAAIDNHGQPLPPATVEGCEQADAVLFGSVGGPKWEHLPPDQQPERGALLPLRKHFKLFSNLRPAKLYQGLEAFCPLRADIAANGFDILCVRELTGGIYFGQPKGREGSGQYEKAFDTEVYHRFEIERIARIAFESARKRRHKVTSIDKANALQSSILWREIVNEIATEYPDVELAHMYIDNATMQLIKDPSQFDVLLCSNLFGDILSDECAMITGSMGMLPSASLNEQGFGLYEPAGGSAPDIAGKNIANPIAQILSLALLLRYSLDADDAACAIERAINRALEEGIRTGDLARGAAAVSTDEMGDIIARYVAEGV	2.83	1.81	2.5	higher activity than the wild type enzyme	1,000 fold	5	110 ± 10	1.62 ± 0.55		
L96V/V198G: E. coli LeuB variant with Leu-96 replaced with valine and Val-198 with glycine (protein, UniProt P30125 2-363, looked up, variant L96V V198G) 3-isopropylmalate …: SKNYHIAVLPGDGIGPEVMTQALKVLDAVRNRFAMRITTSHYDVGGAAIDNHGQPLPPATVEGCEQADAVLFGSVGGPKWEHLPPDQQPERGALVPLRKHFKLFSNLRPAKLYQGLEAFCPLRADIAANGFDILCVRELTGGIYFGQPKGREGSGQYEKAFDTEVYHRFEIERIARIAFESARKRRHKVTSIDKANGLQSSILWREIVNEIATEYPDVELAHMYIDNATMQLIKDPSQFDVLLCSNLFGDILSDECAMITGSMGMLPSASLNEQGFGLYEPAGGSAPDIAGKNIANPIAQILSLALLLRYSLDADDAACAIERAINRALEEGIRTGDLARGAAAVSTDEMGDIIARYVAEGV	0.05	0.04								
L96V: E. coli LeuB variant with Leu-96 replaced with valine (protein, UniProt P30125 2-363, looked up, variant L96V) 3-isopropylmalate …: SKNYHIAVLPGDGIGPEVMTQALKVLDAVRNRFAMRITTSHYDVGGAAIDNHGQPLPPATVEGCEQADAVLFGSVGGPKWEHLPPDQQPERGALVPLRKHFKLFSNLRPAKLYQGLEAFCPLRADIAANGFDILCVRELTGGIYFGQPKGREGSGQYEKAFDTEVYHRFEIERIARIAFESARKRRHKVTSIDKANVLQSSILWREIVNEIATEYPDVELAHMYIDNATMQLIKDPSQFDVLLCSNLFGDILSDECAMITGSMGMLPSASLNEQGFGLYEPAGGSAPDIAGKNIANPIAQILSLALLLRYSLDADDAACAIERAINRALEEGIRTGDLARGAAAVSTDEMGDIIARYVAEGV	1.53									
V198G: E. coli LeuB variant with Val-198 replaced with glycine (protein, UniProt P30125 2-363, looked up, variant V198G) 3-isopropylmalate …: SKNYHIAVLPGDGIGPEVMTQALKVLDAVRNRFAMRITTSHYDVGGAAIDNHGQPLPPATVEGCEQADAVLFGSVGGPKWEHLPPDQQPERGALLPLRKHFKLFSNLRPAKLYQGLEAFCPLRADIAANGFDILCVRELTGGIYFGQPKGREGSGQYEKAFDTEVYHRFEIERIARIAFESARKRRHKVTSIDKANGLQSSILWREIVNEIATEYPDVELAHMYIDNATMQLIKDPSQFDVLLCSNLFGDILSDECAMITGSMGMLPSASLNEQGFGLYEPAGGSAPDIAGKNIANPIAQILSLALLLRYSLDADDAACAIERAINRALEEGIRTGDLARGAAAVSTDEMGDIIARYVAEGV	4.66	1.83	0.5							
L96G/V198A: E. coli LeuB variant with Leu-96 replaced with glycine and Val-198 with alanine (protein, UniProt P30125 2-363, looked up, variant L96G V198A) 3-isopropylmalate …: SKNYHIAVLPGDGIGPEVMTQALKVLDAVRNRFAMRITTSHYDVGGAAIDNHGQPLPPATVEGCEQADAVLFGSVGGPKWEHLPPDQQPERGALGPLRKHFKLFSNLRPAKLYQGLEAFCPLRADIAANGFDILCVRELTGGIYFGQPKGREGSGQYEKAFDTEVYHRFEIERIARIAFESARKRRHKVTSIDKANALQSSILWREIVNEIATEYPDVELAHMYIDNATMQLIKDPSQFDVLLCSNLFGDILSDECAMITGSMGMLPSASLNEQGFGLYEPAGGSAPDIAGKNIANPIAQILSLALLLRYSLDADDAACAIERAINRALEEGIRTGDLARGAAAVSTDEMGDIIARYVAEGV		1.49	20.4	higher activity than the wild type enzyme		102	50 ± 0.5	14.6 ± 0.383	3300 ± 400	4.47 ± 0.35
L96G/V198G: E. coli LeuB variant with Leu-96 and Val-198 both replaced with glycine (protein, UniProt P30125 2-363, looked up, variant L96G V198G) 3-isopropylmalate …: SKNYHIAVLPGDGIGPEVMTQALKVLDAVRNRFAMRITTSHYDVGGAAIDNHGQPLPPATVEGCEQADAVLFGSVGGPKWEHLPPDQQPERGALGPLRKHFKLFSNLRPAKLYQGLEAFCPLRADIAANGFDILCVRELTGGIYFGQPKGREGSGQYEKAFDTEVYHRFEIERIARIAFESARKRRHKVTSIDKANGLQSSILWREIVNEIATEYPDVELAHMYIDNATMQLIKDPSQFDVLLCSNLFGDILSDECAMITGSMGMLPSASLNEQGFGLYEPAGGSAPDIAGKNIANPIAQILSLALLLRYSLDADDAACAIERAINRALEEGIRTGDLARGAAAVSTDEMGDIIARYVAEGV	0.02	0.08	3.6	higher activity than the wild type enzyme						
L96A/V198A: E. coli LeuB variant with Leu-96 and Val-198 both replaced with alanine (protein, UniProt P30125 2-363, looked up, variant L96A V198A) 3-isopropylmalate …: SKNYHIAVLPGDGIGPEVMTQALKVLDAVRNRFAMRITTSHYDVGGAAIDNHGQPLPPATVEGCEQADAVLFGSVGGPKWEHLPPDQQPERGALAPLRKHFKLFSNLRPAKLYQGLEAFCPLRADIAANGFDILCVRELTGGIYFGQPKGREGSGQYEKAFDTEVYHRFEIERIARIAFESARKRRHKVTSIDKANALQSSILWREIVNEIATEYPDVELAHMYIDNATMQLIKDPSQFDVLLCSNLFGDILSDECAMITGSMGMLPSASLNEQGFGLYEPAGGSAPDIAGKNIANPIAQILSLALLLRYSLDADDAACAIERAINRALEEGIRTGDLARGAAAVSTDEMGDIIARYVAEGV	0.65	1.26	3.3	higher activity than the wild type enzyme		12	80 ± 10	2.65 ± 0.067		

Reference: patent US9951356B2, “Processes to prepare elongated 2-ketoacids and C6-C10 compounds therefrom via genetic modifications to microbial metabolic pathways” (Dow Global Technologies LLC, priority 2013, dated 2018)
